Results on four molecules are retold here after patent publication US20240425571A1 (OHIO STATE INNOVATION FOUNDATION, published 2024).

Experiment [1] addresses T1, human GARP (glycoprotein A repetitions predominant, LRRC32) on the cell surface (human, UniProt Q14392 20-662).
T1 construct: whole, on cells; also called hGARP; free GARP
T1 sequence (looked up): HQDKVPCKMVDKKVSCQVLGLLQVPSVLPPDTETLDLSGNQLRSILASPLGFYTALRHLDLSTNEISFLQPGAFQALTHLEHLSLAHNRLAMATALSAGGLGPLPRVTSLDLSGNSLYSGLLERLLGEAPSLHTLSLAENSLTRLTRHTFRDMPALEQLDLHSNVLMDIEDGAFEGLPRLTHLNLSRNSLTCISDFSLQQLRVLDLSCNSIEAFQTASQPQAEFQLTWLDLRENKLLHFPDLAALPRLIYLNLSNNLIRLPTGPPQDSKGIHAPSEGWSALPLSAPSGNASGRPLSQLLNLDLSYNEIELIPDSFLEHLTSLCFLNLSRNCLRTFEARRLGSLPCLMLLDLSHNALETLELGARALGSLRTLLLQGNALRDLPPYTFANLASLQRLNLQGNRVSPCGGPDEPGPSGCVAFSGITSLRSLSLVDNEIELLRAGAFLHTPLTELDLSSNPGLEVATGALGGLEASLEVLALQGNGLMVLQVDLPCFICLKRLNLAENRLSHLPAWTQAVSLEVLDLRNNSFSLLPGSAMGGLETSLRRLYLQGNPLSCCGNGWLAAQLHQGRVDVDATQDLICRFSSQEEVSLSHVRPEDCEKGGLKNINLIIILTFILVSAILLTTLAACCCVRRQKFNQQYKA
Put plainly: FACS, Ag(+) cells, culture supernatant, 0.2 ug/ml.

The target of experiment [2] is T1, human GARP (glycoprotein A repetitions …). In words: FACS, Ag(+) cells, culture supernatant, 1 ug/ml.
For experiment [3] the target is unchanged. In words: FACS, Ag(+) cells, 0 ug/ml antibody (blank). (In general: Flow cytometry measures light scatter and fluorescence of single cells or particles in a stream.)
The target is the same in experiment [4]. Put plainly: FACS, Ag(+) cells, culture supernatant, 5 ug/ml.
The target is the same in experiment [5]. In words: FACS, Ag(+) cells, heated-sample series, 0 ug/ml antibody (blank).
For experiment [6] the target is unchanged. Put plainly: FACS, Ag(+) cells, supernatant heated 70 C 5 min, 1 ug/ml.
For experiment [7] the target is unchanged. In words: FACS, Ag(+) cells, supernatant heated 70 C 5 min, 5 ug/ml.
The target is the same in experiment [8]. In words: FACS, Ag(+) cells, supernatant heated 70 C 5 min, 0.2 ug/ml.
Experiment [9] has the same target. In words: flow cytometry on human Tregs (drawn table).

Where a chain is given by its changes, count along the chain named.

B1: huPIIO-1VH4VL1 (antibody, V domains shown)
VH: DVQLQESGPGLVKPSQTLSLTCTVSGYSITSDYAWNWIRQFPGNKLEWMGYISYSGSTSYTPSLKSRITISRDTSKNHFFLQLSSVTAEDTATYYCAKSGGDYYGSSSYWYFDVWGQGTTVTVSS
VL: DIVLTQSPSSLAVSLGERATMNCKSSQSLLNSRSQKNYLAWYQQKPGQPPKLLIYGASTRGSGVPDRFSGSGSGTDFTLTISSLQAEDVAVYYCQNDHSYPFTFGQGTKLEIKR
notes: Humanized IgG from Expi293, tested as culture supernatant; also called H4L1; HuPIIO-1VH4/L1
Regarding B1, the MFI in experiment [1] is 24.8 MFI; in experiment [2], 26.2 MFI; in [3], 9.91 MFI; in experiment [4], 27.3 MFI; in experiment [5], 9.91 MFI; in experiment [6], 25.4 MFI. In addition, the figures for the MFI in [7] and in [8] were 26.9 MFI and 24.2 MFI, respectively.

B2: huPIIO-1VH4VL3 (antibody, V domains shown)
VH: B1 VH
VL: B1 VL with L15A, A19V, N22S, L84V, Q106S
notes: Humanized IgG from Expi293, tested as culture supernatant; also called H4L3; HuPIIO-1VH4/L3
Consider B2, for which the MFI is 25 MFI in experiment [1]; 26.3 MFI in experiment [2]; 9.91 MFI in [3]; 26.7 MFI in experiment [4]; 9.91 MFI in experiment [5]; 25.8 MFI in experiment [6]. The MFI in experiment [7] turned out to be 27 MFI; in experiment [8], 24.2 MFI.

B3: huPIIO-1VH4VL2 (antibody, V domains shown)
VH: B1 VH
VL: B1 VL with A19V, L84V
notes: Humanized IgG from Expi293, tested as culture supernatant; also called H4L2; HuPIIO-1VH4/L2
As to B3, the MFI was 22.4 MFI in experiment [1]; 24.9 MFI in experiment [2]; 9.91 MFI in experiment [3]; 26.3 MFI in experiment [4]; 9.91 MFI in [5]; 25 MFI in [6]. Further, the MFI was found to be 25.1 MFI in experiment [7] and 21.7 MFI in experiment [8].

B4: 5C5 (antibody, V domains shown)
VH: EVKLVESGGGSVKPGGSLKLSCAASGFTFSNYVMSWVRQTPEKRLEWVATISSGGSYTYYPDSVKGRLTISRDNAKNTLYLQMSSLRSEDTAMYYCARGYDNGDYVMDYWGQGTSVTVSS
VL: DIVLTQSPASLAVSLGQRATISCRASESVDTYGNSFMHWYQQIPGQPPKVLIYRASNLESGIPARFSGSGSRTDFTLTINPVEAGDVATYYCQQTNEHPPTFGGGTKLEIK
notes: anti-human GARP clone; printed 5C5 on the sheets, 5c5 / m5c5 / 5C5 in the text; also called m5c5
For B4, the binding result in experiment [9] is recorded as “binds”.
